# Test results: patent US9835633
# Target: human apolipoprotein E4
# Sequence (chain, as listed by the source): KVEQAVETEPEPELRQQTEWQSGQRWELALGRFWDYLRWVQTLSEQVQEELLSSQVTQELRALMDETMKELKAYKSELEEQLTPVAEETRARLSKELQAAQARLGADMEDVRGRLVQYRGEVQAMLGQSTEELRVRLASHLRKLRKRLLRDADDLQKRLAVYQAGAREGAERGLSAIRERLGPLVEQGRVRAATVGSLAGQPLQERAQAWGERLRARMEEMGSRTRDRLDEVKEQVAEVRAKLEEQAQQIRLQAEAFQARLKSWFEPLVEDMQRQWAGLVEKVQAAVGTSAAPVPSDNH
Protein,apoE fragmentation after PCSK2 shRNA in PCSK1 null and PCSK1 WT primary neurons,apoE fragmentation in NSE-apoE4 primary neurons after shRNA knockdown,"apoE fragmentation by western blot in brains of PCSK1 null, NSE-apoE4 pups",apoE fragmentation in PCSK1 null primary neurons
endogenous PCSK2 of NSE-apoE4 mouse neurons/brain (protein) GYRDINEIDINMNDPLFTKQWYLFNTGQADGTPGLDLNVAEAWELGYTGKGVTIGIMDDGIDYLHPDLAYNYNADASYDFSSNDPYPYPRYTDDWFNSHGTRCAGEVSAAASNNICGVGVAYNSKVAGIRMLDQPFMTDIIEASSISHMPQLIDIYSASWGPTDNGKTVDGPRELTLQAMADGVNKGRGGKGSIYVWASGDGGSYDDCNCDGYASSMWTISINSAINDGRTALYDESCSSTLASTFSNGRKRNPEAGVATTDLYGNCTLRHSGTSAAAPEAAGVFALALEANLDLTWRDMQHLTVLTSKRNQLHDEVHQWRRNGVGLEFNHLFGYGVLDAGAMVKMAKDWKTVPERFHCVGGSVQNPEKIPPTGKLVLTLKTNACEGKENFVRYLEHVQAVITVNATRRGDLNINMTSPMGTKSILLSRRPRDDDSKVGFDKWPFMTTHTWGEDARGTWTLELGFVGSAPQKGLLKEWTLMLHGTQSAPYIDQVVRDYQSKLAMSKKQELEEELDEAVERSLQSILRKN,"PCSK2 shRNAs or 7B2 shRNAs decrease apoE fragmentation in PCSK1 null, primary neurons as well as in PCSK1 WT primary neurons",knocking down either PCSK1 or PCSK2 in NSE-apoE4 primary neurons decreased apoE fragmentation,,
endogenous PCSK1 of NSE-apoE4 mouse neurons/brain (protein) SVQKDSALDLFNDPMWNQQWYLQDTRMTAALPKLDLHVIPVWEKGITGKGVVITVLDDGLEWNHTDIYANYDPEASYDFNDNDHDPFPRYDLTNENKHGTRCAGEIAMQANNHKCGVGVAYNSKVGGIRMLDGIVTDAIEASSIGFNPGHVDIYSASWGPNDDGKTVEGPGRLAQKAFEYGVKQGRQGKGSIFVWASGNGGRQGDNCDCDGYTDSIYTISISSASQQGLSPWYAEKCSSTLATSYSSGDYTDQRITSADLHNDCTETHTGTSASAPLAAGIFALALEANPNLTWRDMQHLVVWTSEYDPLASNPGWKKNGAGLMVNSRFGFGLLNAKALVDLADPRTWRNVPEKKECVVKDNNFEPRALKANGEVIVEIPTRACEGQENAIKSLEHVQFEATIEYSRRGDLHVTLTSAVGTSTVLLAERERDTSPNGFKNWDFMSVHTWGENPVGTWTLKITDMSGRMQNEGRIVNWKLILHGTSSQPEHMKQPRVYTSYNTVQNDRRGVEKMVNVVEKRPTQKSLNGNLLVPKNSSSSNVEGRRDEQVQGTPSKAMLRLLQSAFSKNALSKQSPKKSPSAKLSIPYESFYEALEKLNKPSKLEGSEDSLYSDYVDVFYNTKPYKHRDDRLLQALMDILNEEN,,knocking down either PCSK1 or PCSK2 in NSE-apoE4 primary neurons decreased apoE fragmentation,"a significant decrease in apoE fragmentation was observed in PCSK1 null, NSE-apoE4 brains compared to that of PCSK1 WT, NSE-apoE4 brains",A decrease of apoE fragmentation was observed in PCSK1 null primary neurons compared to PCSK1 wild-type (WT) neurons
